Consider one substance from patent publication US20090075925A1, “Methods and Compositions Related to APOBEC-1 Expression” (priority 2006, published 2009).

The assay has as its target rat APOBEC-1 (endogenous, rat liver nuclear extract and McArdle cells) (rat). Put plainly: cell-based or functional assay.

“rat ACF64 S154D (from UniProt Q923K9 1-586)” came in with an apoB mRNA editing in stable McArdle cell lines of 67%.
